From IntAct's records for PubMed 31515488

B1: Protein DBF4 homolog B (Homo sapiens), Q8NFT6 (parent)
chain: MSEPGKGDDCLELESSMAESRLRAPDLGVSRCLGKCQKNSPGARKHPFSGKSFYLDLPAGKNLQFLTGAIQQLGGVIEGFLSKEVSYIVSSRREVKAESSGKSHRGCPSPSPSEVRVETSAMVDPKGSHPRPSRKPVDSVPLSRGKELLQKAIRNQGSISGGGSGGSSSLLTNARSWGVRILHVDEMMMHVQQLSLASLCVKKQQPKKPEGTCPAAESRTRKVARLKAPFLKIEDESRKFRPFHHQFKSFPEISFLGPKDASPFEAPTTLGSMHHTRESKDGEPSPRSAAHTMPRRKKGYCECCQEAFEELHVHLQSAQHRSFALEAHLYAEVDRIIAQLSHSFADIPFQAGLPRWSGSPASDCDPLCPETLHPHQPSHPRAASPRIRKEDSCQASVTQGRAAGQQRWTESLDGVMGPPASHTCVSATTLLPALPKGSREQGCLCPCPASFTQSHLVTSLALLPGEWSPAEDMPLHPSQENSFAPADIPVKGPLLFPEARPWLMSARCWVRPFPFVTWGCLIPHDTTPLHEEVSPCPCLRLGYLYLLLTQSLWCRVRVPSLSTAGPIPRTSHPCTLAFPSYLNDHDLGHLCQAKPQGWNTPQPFLHCGFLAVDSG
partner: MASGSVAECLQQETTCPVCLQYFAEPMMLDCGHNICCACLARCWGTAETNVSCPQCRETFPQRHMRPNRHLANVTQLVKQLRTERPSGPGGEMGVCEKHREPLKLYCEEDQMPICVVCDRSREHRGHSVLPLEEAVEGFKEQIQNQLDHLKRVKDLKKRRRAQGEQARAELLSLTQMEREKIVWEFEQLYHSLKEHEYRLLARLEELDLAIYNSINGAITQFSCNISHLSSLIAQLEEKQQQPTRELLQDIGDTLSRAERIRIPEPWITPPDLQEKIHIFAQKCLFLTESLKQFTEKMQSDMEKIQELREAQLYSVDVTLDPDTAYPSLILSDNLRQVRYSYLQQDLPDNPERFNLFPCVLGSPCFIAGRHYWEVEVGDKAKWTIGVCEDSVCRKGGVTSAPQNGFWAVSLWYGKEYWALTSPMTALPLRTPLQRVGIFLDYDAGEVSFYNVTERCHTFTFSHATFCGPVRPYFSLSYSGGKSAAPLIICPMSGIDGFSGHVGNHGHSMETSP
B2: Syntenin-1 (Homo sapiens), O00560 (parent)
chain: MSLYPSLEDLKVDKVIQAQTAFSANPANPAILSEASAPIPHDGNLYPRLYPELSQYMGLSLNEEEIRANVAVVSGAPLQGQLVARPSSINYMVAPVTGNDVGIRRAEIKQGIREVILCKDQDGKIGLRLKSIDNGIFVQLVQANSPASLVGLRFGDQVLQINGENCAGWSSDKAHKVLKQAFGEKITMTIRDRPFERTITMHKDSTGHVGFIFKNGKITSIVKDSSAARNGLLTEHNICEINGQNVIGLKDSQIADILSTSGTVVTITIMPAFIFEHIIKRMAPSIMKSLMDHTIPEV
B3: Protein phosphatase 1 regulatory inhibitor subunit 16B (Homo sapiens), Q96T49 (parent)
chain: MASHVDLLTELQLLEKVPTLERLRAAQKRRAQQLKKWAQYEQDLQHRKRKHERKRSTGGRRKKVSFEASVALLEASLRNDAEEVRYFLKNKVSPDLCNEDGLTALHQCCIDNFEEIVKLLLSHGANVNAKDNELWTPLHAAATCGHINLVKILVQYGADLLAVNSDGNMPYDLCEDEPTLDVIETCMAYQGITQEKINEMRVAPEQQMIADIHCMIAAGQDLDWIDAQGATLLHIAGANGYLRAAELLLDHGVRVDVKDWDGWEPLHAAAFWGQMQMAELLVSHGASLSARTSMDEMPIDLCEEEEFKVLLLELKHKHDVIMKSQLRHKSSLSRRTSSAGSRGKVVRRASLSDRTNLYRKEYEGEAILWQRSAAEDQRTSTYNGDIRETRTDQENKDPNPRLEKPVLLSEFPTKIPRGELDMPVENGLRAPVSAYQYALANGDVWKVHEVPDYSMAYGNPGVADATPPWSSYKEQSPQTLLELKRQRAAAKLLSHPFLSTHLGSSMARTGESSSEGKAPLIGGRTSPYSSNGTSVYYTVTSGDPPLLKFKAPIEEMEEKVHGCCRIS
partner: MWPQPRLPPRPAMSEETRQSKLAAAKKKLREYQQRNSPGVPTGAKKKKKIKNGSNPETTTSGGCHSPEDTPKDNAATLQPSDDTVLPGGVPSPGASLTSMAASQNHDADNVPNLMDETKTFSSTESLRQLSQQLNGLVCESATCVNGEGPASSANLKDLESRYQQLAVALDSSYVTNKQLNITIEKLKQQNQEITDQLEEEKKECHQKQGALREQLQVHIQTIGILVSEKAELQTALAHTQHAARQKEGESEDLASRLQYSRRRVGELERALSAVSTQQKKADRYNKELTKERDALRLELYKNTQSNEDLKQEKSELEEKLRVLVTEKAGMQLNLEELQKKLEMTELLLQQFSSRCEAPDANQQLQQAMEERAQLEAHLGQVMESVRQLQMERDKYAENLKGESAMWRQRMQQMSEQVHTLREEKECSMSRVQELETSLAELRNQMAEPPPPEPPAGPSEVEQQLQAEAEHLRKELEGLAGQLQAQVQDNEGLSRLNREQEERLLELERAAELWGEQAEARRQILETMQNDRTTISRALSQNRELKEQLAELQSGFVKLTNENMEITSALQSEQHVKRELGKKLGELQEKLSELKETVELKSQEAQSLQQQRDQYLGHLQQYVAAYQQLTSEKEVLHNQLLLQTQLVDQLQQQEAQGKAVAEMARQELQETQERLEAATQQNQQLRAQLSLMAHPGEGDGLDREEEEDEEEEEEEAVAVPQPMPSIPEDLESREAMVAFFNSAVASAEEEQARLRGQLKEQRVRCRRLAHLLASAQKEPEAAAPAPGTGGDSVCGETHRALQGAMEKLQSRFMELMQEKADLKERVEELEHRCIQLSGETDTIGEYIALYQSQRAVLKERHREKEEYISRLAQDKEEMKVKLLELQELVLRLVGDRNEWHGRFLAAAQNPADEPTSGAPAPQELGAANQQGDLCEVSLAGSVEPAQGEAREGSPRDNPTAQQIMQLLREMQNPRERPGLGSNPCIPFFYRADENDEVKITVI
B4: Keratin-associated protein 5-9 (Homo sapiens), P26371 (parent)
chain: MGCCGCSGGCGSSCGGCDSSCGSCGSGCRGCGPSCCAPVYCCKPVCCCVPACSCSSCGKRGCGSCGGSKGGCGSCGCSQCSCCKPCCCSSGCGSSCCQCSCCKPYCSQCSCCKPCCSSSGRGSSCCQSSCCKPCCSSSGCGSSCCQSSCCKPCCSQSRCCVPVCYQCKI
B5: Zinc finger protein RFP (Homo sapiens), P14373 (parent)
chain: B1 partner
partner: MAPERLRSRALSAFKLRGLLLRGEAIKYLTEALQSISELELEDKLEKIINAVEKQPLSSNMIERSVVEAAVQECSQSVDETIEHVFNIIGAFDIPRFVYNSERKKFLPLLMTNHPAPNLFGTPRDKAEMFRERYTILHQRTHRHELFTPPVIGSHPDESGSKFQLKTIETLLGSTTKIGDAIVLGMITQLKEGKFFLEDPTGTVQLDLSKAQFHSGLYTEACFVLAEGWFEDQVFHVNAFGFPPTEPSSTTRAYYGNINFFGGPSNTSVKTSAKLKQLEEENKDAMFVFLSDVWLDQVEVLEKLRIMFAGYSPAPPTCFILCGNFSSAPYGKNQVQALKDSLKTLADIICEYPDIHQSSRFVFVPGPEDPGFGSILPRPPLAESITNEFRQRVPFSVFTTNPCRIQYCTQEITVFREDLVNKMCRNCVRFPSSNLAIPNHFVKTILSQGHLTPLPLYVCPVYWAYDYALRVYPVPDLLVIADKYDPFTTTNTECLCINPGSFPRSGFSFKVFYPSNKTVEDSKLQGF
B6: Pseudouridylate synthase PUS7L (Homo sapiens), Q9H0K6 (parent)
chain: MEEDTDYRIRFSSLCFFNDHVGFHGTIKSSPSDFIVIEIDEQGQLVNKTIDEPIFKISEIQLEPNNFPKKPKLDLQNLSLEDGRNQEVHTLIKYTDGDQNHQSGSEKEDTIVDGTSKCEEKADVLSSFLDEKTHELLNNFACDVREKWLSKTELIGLPPEFSIGRILDKNQRASLHSAIRQKFPFLVTVGKNSEIVVKPNLEYKELCHLVSEEEAFDFFKYLDAKKENSKFTFKPDTNKDHRKAVHHFVNKKFGNLVETKSFSKMNCSAGNPNVVVTVRFREKAHKRGKRPLSECQEGKVIYTAFTLRKENLEMFEAIGFLAIKLGVIPSDFSYAGLKDKKAITYQAMVVRKVTPERLKNIEKEIEKKRMNVFNIRSVDDSLRLGQLKGNHFDIVIRNLKKQINDSANLRERIMEAIENVKKKGFVNYYGPQRFGKGRKVHTDQIGLALLKNEMMKAIKLFLTPEDLDDPVNRAKKYFLQTEDAKGTLSLMPEFKVRERALLEALHRFGMTEEGCIQAWFSLPHSMRIFYVHAYTSKIWNEAVSYRLETYGARVVQGDLVCLDEDIDDENFPNSKIHLVTEEEGSANMYAIHQVVLPVLGYNIQYPKNKVGQWYHDILSRDGLQTCRFKVPTLKLNIPGCYRQILKHPCNLSYQLMEDHDIDVKTKGSHIDETALSLLISFDLDASCYATVCLKEIMKHDV
partner: B1 partner
B7: Transmembrane protein 140 (Homo sapiens), Q9NV12 (parent)
chain: MAGPRPRWRDQLLFMSIIVLVIVVICLMFYALLWEAGNLTDLPNLRIGFYNFCLWNEDTSTLQCHQFPELEALGVPRVGLGLARLGVYGSLVLTLFAPQPLLLAQCNSDERAWRLAVGFLAVSSVLLAGGLGLFLSYVWKWVRLSLPGPGFLALGSAQALLILLLIAMAVFPLRAERAESKLESC
partner: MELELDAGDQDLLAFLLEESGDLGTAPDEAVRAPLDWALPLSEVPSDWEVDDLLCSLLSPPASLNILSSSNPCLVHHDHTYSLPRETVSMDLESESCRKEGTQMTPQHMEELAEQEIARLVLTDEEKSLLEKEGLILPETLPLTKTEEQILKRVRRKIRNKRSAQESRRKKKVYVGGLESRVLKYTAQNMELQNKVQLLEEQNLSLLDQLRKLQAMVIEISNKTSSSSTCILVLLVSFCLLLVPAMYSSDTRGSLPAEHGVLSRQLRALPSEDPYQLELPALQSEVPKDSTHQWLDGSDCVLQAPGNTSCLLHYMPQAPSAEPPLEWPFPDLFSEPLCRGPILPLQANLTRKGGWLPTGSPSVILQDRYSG

Variants of: B1
Details: with tri27_human TRIM27, P14373

effect of a mutation on the interaction | Variant
with no effect | L199S

Variants of: B2
Details: with cryaa_human CRYAA

effect of a mutation on the interaction | Variant
with no effect | K124R

Variants of: B2
Details: with cox41_human COX4I1, P13073
Chain of cox41_human COX4I1, P13073 (P13073 whole entry): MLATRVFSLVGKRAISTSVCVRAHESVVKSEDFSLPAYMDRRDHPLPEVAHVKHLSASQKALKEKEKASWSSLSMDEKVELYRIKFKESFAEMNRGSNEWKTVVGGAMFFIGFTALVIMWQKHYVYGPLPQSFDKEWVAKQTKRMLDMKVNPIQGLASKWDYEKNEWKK

effect of a mutation on the interaction | Variant
with no effect | K124R

Variants of: B2
Details: with frih_human FTH1, P02794

effect of a mutation on the interaction | Variant
with no effect | K124R

Variants of: B3
Details: with goga2_human GOLGA2, Q08379

effect of a mutation on the interaction | Variant
with no effect | P519S

Variants of: B4
Details: with catz_human CTSZ

effect of a mutation on the interaction | Variant
disrupting interaction strength | Y40C

Variants of: B4
Details: with sdc3_human SDC3, O75056
Chain of sdc3_human SDC3, O75056 (O75056 whole entry): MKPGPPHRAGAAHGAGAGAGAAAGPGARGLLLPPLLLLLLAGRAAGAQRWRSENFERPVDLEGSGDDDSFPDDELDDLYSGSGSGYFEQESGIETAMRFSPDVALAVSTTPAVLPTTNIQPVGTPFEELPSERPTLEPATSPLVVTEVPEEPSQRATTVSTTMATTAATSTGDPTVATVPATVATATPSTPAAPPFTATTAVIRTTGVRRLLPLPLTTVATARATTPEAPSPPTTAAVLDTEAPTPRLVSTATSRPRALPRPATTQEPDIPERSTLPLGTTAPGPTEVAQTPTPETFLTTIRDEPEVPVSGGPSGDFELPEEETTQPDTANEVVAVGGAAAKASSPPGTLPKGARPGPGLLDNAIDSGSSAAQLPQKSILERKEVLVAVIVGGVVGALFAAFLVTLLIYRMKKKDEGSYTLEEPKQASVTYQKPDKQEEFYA

effect of a mutation on the interaction | Variant
with no effect | Y40C

Variants of: B5
Details: with dpoe2_human POLE2, P56282

effect of a mutation on the interaction | Variant
with no effect | N355S

Variants of: B6
Details: with tri27_human TRIM27, P14373

effect of a mutation on the interaction | Variant
disrupting interaction strength | R527C
with no effect | I50V

Variants of: B7
Details: with creb3_human CREB3, O43889

effect of a mutation on the interaction | Variant
with no effect | A112E
